Earlier results, collected in publication PMC12093155.

Molecular target: Prx1 (Homo sapiens) (UniProt Q06830)
Sequence (Q06830 2-199): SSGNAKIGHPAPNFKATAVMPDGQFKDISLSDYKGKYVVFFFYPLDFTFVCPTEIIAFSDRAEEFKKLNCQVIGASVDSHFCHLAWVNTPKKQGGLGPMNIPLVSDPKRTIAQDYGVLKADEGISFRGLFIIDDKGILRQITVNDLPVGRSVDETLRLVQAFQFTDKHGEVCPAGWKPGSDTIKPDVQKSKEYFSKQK

Srx, sequence (Q9BYN0 whole entry): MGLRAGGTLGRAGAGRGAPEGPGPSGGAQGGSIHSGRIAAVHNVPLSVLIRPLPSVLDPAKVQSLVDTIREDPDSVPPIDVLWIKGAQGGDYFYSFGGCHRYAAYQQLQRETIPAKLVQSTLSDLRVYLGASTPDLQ

Srx (from UniProt Q9BYN0)
Kd: 7 µM
